From patent US20180371075A1

Biological target: human IL-3 expressed by E. coli (Peprotech), non-glycosylated (human) (UniProt P08700)
Assay: cell-based or functional assay

UniProt P08700, sequence (P08700 28-152, tags or fused parts left off): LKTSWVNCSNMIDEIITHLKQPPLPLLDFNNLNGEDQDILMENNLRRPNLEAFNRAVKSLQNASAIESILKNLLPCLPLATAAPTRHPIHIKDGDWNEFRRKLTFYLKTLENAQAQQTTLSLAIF

Substance: R&D monoclonal anti-IL-3 antibody clone 4806 (R&D Systems, Inc., catalogue No. MAB203)
- IC50, IL-3 dependent growth of TF1 cells: 0.033 µg/mL
